# Laboratory results: the supplement of paper PMC10567573
# B1: PPP2R2B (parent)
# chain: RNTKRDVTLEASRENSKPRAILKP
# B2: CAMK2A (parent)
# chain: ILLVGYPPFWDEDQHRLYKQIKAG
# Variants of: B1
# Test: protein stability index of a GFP-peptide fusion (GPS, HEK-293T) (PSI 1-6); higher = more stable
# Settings: c terminus: a fixed tail appended
# 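Also: lentivirally expressed fusions sorted by FACS into six bins by GFP to DsRed ratio, PSI derived from sequencing read proportions per bin multiplied by bin number.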
row,Variant,protein stability index
1,N15C,4.13
2,N15R,4.22
3,N15H,3.94
4,N15G,4.49
5,N15A,4.29
6,N15W,3.77
7,N15T,4.49
8,N15P,4.32
9,S16G,4.42
10,S16E,4.75
11,S16D,4.58
12,S16Y,4.17
13,S16N,4.48
14,S16A,4.51
15,S16M,4.53
16,S16F,4.38
17,S16T,4.2
18,S16R,4.24
19,S16I,4.19
20,S16K,4.23
21,S16Q,4.61
22,S16C,4.23
23,T8K,4.86
24,T8E,4.9
25,T8Q,4.62

row,Variant,protein stability index
1,T8W,3.66
2,T8M,4.34
3,T8A,4.72
4,T8G,4.54
5,T8S,4.3
6,T8F,3.88
7,E14C,3.9
8,E14G,4.4
9,E14I,3.72
10,E14R,4.14
11,E14Q,4.97
12,E14Y,3.67
13,E14K,4.12
14,E14A,4.66
15,E14M,3.88
16,E14V,3.79
17,E14P,4.3
18,E14D,4.4
19,K4C,3.8
20,K4L,4.61
21,K4Q,4.96
22,K4G,4.61
23,K4M,4.71
24,K4P,4.88
25,K4N,4.77

row,Variant,protein stability index
1,K4R,4.54
2,K4W,3.39
3,K4S,4.92
4,K4D,4.72
5,R5S,4.49
6,R5N,4.92
7,R5F,4.44
8,R5T,4.94
9,R5L,4.4
10,R5G,5.07
11,R5I,4.19
12,R5H,4.85
13,R5K,4.62
14,R5E,5.03
15,R5M,3.86
16,A11K,4.23
17,A11G,4.49
18,A11E,5.24
19,A11D,4.78
20,A11C,4.52
21,A11Y,3.92
22,A11H,4.8
23,A11W,3.95
24,A11V,4.49
25,A11R,4.58

row,Variant,protein stability index
1,A11F,3.59
2,A11P,4.23
3,A11L,3.35
4,P18D,5.07
5,P18R,4.79
6,P18T,4.54
7,P18C,4.25
8,P18L,4.27
9,P18N,4.55
10,P18W,3.87
11,P18I,4.27
12,P18G,4.86
13,P18M,4.58
14,P18A,4.52
15,P18E,5
16,S12P,4.45
17,S12Q,4.42
18,S12D,4.8
19,S12F,3.58
20,S12I,4.07
21,S12M,4.12
22,S12V,4.33
23,S12L,3.96
24,E10D,4.64
25,E10P,4.55

row,Variant,protein stability index
1,E10N,4.25
2,E10Q,4.33
3,E10A,4.52
4,E10S,4.38
5,E10I,4.14
6,E10H,4.12
7,E10W,2.77
8,E10K,4.52
9,E10M,3.83
10,E10V,4.35
11,R1E,4.31
12,R1A,4.61
13,R1W,4.45
14,R1Q,4.81
15,R1I,4.61
16,R1G,4.9
17,R1T,4.99
18,R1P,4.27
19,R1Y,4.22
20,R1K,4.65
21,R1C,4.88
22,R1F,4.29
23,L9W,4.34
24,L9Y,4.52
25,L9K,4.26

row,Variant,protein stability index
1,L9I,4.38
2,L9F,4.11
3,L9E,4.78
4,L9H,4.46
5,L9N,4.22
6,P24K,4.26
7,P24F,3.56
8,P24E,4.74
9,P24H,4.41
10,P24Q,4.47
11,P24I,3.32
12,P24L,4
13,P24G,4.65
14,A20C,4.17
15,A20R,4.66
16,A20H,4.85
17,A20G,4.39
18,A20Y,4.1
19,A20N,4.64
20,A20T,4.49
21,A20E,5
22,A20F,4.03
23,A20K,5.04
24,A20L,4.19
25,A20M,4.65

row,Variant,protein stability index
1,R13H,5.06
2,R13Y,4.37
3,R13F,3.98
4,R13D,5.09
5,R13A,4.92
6,R13E,5.14
7,R13N,4.83
8,R13L,4.44
9,R13Q,4.75
10,R13M,4.64
11,R13C,4.16
12,R13T,4.07
13,R13W,3.56
14,K23N,4.18
15,K23M,3.94
16,K23T,4.67
17,K23D,4.79
18,K23S,4.56
19,K23R,4.04
20,K23Y,4.38
21,K23I,4.04
22,K23C,4.25
23,K23H,4.57
24,K23F,3.48
25,K23A,4.5

row,Variant,protein stability index
1,V7R,4.59
2,V7N,4.76
3,V7G,4.83
4,V7F,4.43
5,V7E,4.46
6,V7W,4.61
7,V7T,4.81
8,V7A,4.19
9,V7P,4.98
10,V7I,4.25
11,V7S,4.58
12,V7Q,4.8
13,L22T,4.49
14,L22C,4.47
15,L22M,4.33
16,L22P,4.28
17,L22E,5.31
18,L22G,4.69
19,L22A,4.99
20,L22V,4.72
21,L22N,4.79
22,L22S,4.9
23,L22F,4.5
24,L22Y,4.37
25,L22R,4.75

row,Variant,protein stability index
1,L22Q,4.92
2,L22D,5.09
3,I21Q,4.8
4,I21P,5.15
5,I21A,4.8
6,I21D,5.3
7,I21H,4.52
8,I21Y,4.5
9,I21V,4.6
10,I21L,4.68
11,I21K,4.83
12,I21F,4.3
13,I21G,4.99
14,I21S,4.78
15,D6K,4.45
16,D6E,4.49
17,D6T,4.34
18,D6N,4.55
19,D6L,3.94
20,D6C,4.29
21,D6G,4.44
22,D6F,3.83
23,D6Y,3.79
24,D6R,4.29
25,D6W,3.27

row,Variant,protein stability index
1,D6P,3.81
2,D6S,4.55
3,D6H,4.49
4,N2G,4.81
5,N2H,4.66
6,N2R,4.02
7,N2A,4.31
8,N2D,4.89
9,N2F,4.51
10,N2K,4.51
11,N2C,4.27
12,N2I,4.69
13,N2Y,4.37
14,R19I,4.39
15,R19A,4.2
16,R19K,4.7
17,R19P,4.79
18,R19S,4.41
19,R19E,5.04
20,R19L,4.7
21,R19H,4.46
22,T3M,4.35
23,T3W,4.05
24,T3I,4.45
25,T3H,4.4

row,Variant,protein stability index
1,T3N,3.95
2,T3Y,3.84
3,T3A,4.87
4,T3C,4.55
5,T3F,4.17
6,T3G,4.29
7,T3L,4.64
8,T3P,4.53
9,K17N,4.5
10,K17Y,4.14
11,K17C,4.18
12,K17E,5.13
13,K17P,5.27
14,K17L,4.56
15,K17Q,4.81
16,K17V,4.66
17,K17W,4.3
18,K17F,4.37
19,K17I,4.33

# Variants of: B2
# Test: as above
# Settings: c terminus: a fixed tail appended
row,Variant,protein stability index
1,A23T,1.27
2,A23K,2.1
3,A23L,2.11
4,A23N,2.67
5,A23P,1.8
6,A23Y,2.73
7,A23I,2.82
8,A23F,2.23
9,A23H,1.58
10,A23E,2.26
11,A23Q,2.82
12,A23D,1.98
13,A23G,1.72
14,A23W,3.2
15,A23S,2.46
16,A23R,2.21
17,A23V,1.98
18,A23M,2.06
19,I21W,2.4
20,I21M,1.72
21,I21R,2.05
22,I21Q,2.28

row,Variant,protein stability index
1,I21P,1.42
2,I21S,1.82
3,I21Y,1.84
4,I21T,1.73
5,I21N,2.19
6,I21V,1.89
7,G24Y,2.39
8,G24K,1.7
9,G24Q,3.66
10,G24E,1.36
11,G24L,1.8
12,G24C,2.27
13,G24P,1.65
14,G24I,2.71
15,G24R,2.4
16,G24T,2.58
17,G24S,2.52
18,G24N,3.14
19,G24A,2.05
20,G24F,1.51
21,G24W,1.96
22,G24M,1.58

row,Variant,protein stability index
1,G24H,2.08
2,G24D,1.87
3,G24V,2.81
4,K22I,2.55
5,K22D,1.97
6,K22H,1.52
7,K22A,2.87
8,K22N,2.6
9,K22T,2.52
10,K22P,2.74
11,K22R,1.91
12,K22S,3.22
13,K22V,2.15
14,K22M,2.6
15,K22E,1.96
16,K22C,2.31
17,K22G,1.63
18,K22F,2.94
19,K22W,2.2
20,K22Y,2.43
21,K22Q,3.46
